Patent US20050008642A1

Target: IGF-IR on cells (HT29, NCI H322M human tumor cells; 3T3 cells transfected with IGF-IR) (human) (UniProt P08069)
Test: cell-based or functional assay

- Akt/PKB phosphorylation in the absence of IGF-I (Western blot): > 5 nM
Substance: αIR3 (antibody)
